Reference: paper PMC11952658, “The zinc finger of DNA Ligase 3α binds to nucleosomes via an arginine anchor” (Research Square, 2025)

Molecular target: Cy3-labeled human histone nucleosome core particle reconstituted on the Widom 601 sequence (human, Cy3-maleimide on K119C)
Test: single-molecule fluorescence imaging on a tethered nucleosome (SMADNE, LUMICKS C-trap); Cy3-labeled undamaged 601 NCP ligated into 6 kb biotinylated DNA handles and tethered between optically trapped streptavidin beads, 4–5 pN tension; tagged proteins from nuclear extract; lifetimes from CRTD; KD from koff, apparent kon and protein concentration
Settings: one partner purified

B1: Halo 635-ZnF-BRCT LIG3α (domain or fragment)
chain: MAEQRFCVDYAKRGTAGCKKCKEKIVKGVCRIGKVVPNPFSESGGDMKEWYHIKCMFEKLERARATTKKIEDLTELEGWEELEDNEKEQITQHIADLSSKAAGTPKKKAVVQAKLTTTGQVTSPVKGASFVTSTNPRKFSGFSAKPNNSGEAPSSPTPKRSLSSSKCDPEKADFTVVAGDEGSSTTGGSSEENKGPSGSAVSRKAPSKPSASTKKAEGKLSNSNSKDGNMQTAKPSAMKVGEKLATKSSPVKVGEKRKAADETLCQTKVLLDIFTGVRLYLPPSTPDFSRLRRYFVAFDGDLVQEFDMTSATHVLGSRDKNPAAQQVSPEWIWACIRKRRLVAPC
modifications: Janelia Fluor 635 HaloTag ligand on the HaloTag
Q: For B1, which Kd is on record?
A: Its Kd is 1.1 ± 0.3 nM.
